Data from patent US20220002669A1 (JUNO THERAPEUTICS, published 2022).

What was measured:
[1] = molecular target: T1, CD4 on the surface of T cells from a human donor apheresis sample (human, UniProt P01730 26-458); assay: column affinity selection of T cells from a human apheresis sample
T1 construct: whole, on cells; also called selection marker

[2] = molecular target: T2, STREP-TACTIN M2 covalently coupled to Sephadex G50 stationary phase (Streptomyces avidinii, UniProt P22629 38-163, covalently coupled to cyanogen bromide (CNBr) activated Sephadex G50 resin); assay: loading of tagged Fab onto Strep-Tactin Sephadex G50 resin
T2 construct: Here it is immobilised on the chromatography matrix; also called immobilized Strep-Tactin reagent; selection reagent

B1: anti-CD4 binding Fab fragment obtained from m13B8.2, heavy chain carboxy-terminally fused with a Twin Strep-Tag (Fab, V domains shown)
VH: QVQLKQSGPGLVQPSQSLSITCTVSGFSLTTFGVHWVRQSPGKGLEWLGVIWASGITDYNVPFMSRLSITKDNSKSQVFFKLNSLQPDDTAIYYCAKNDPGTGFAYWGQGTLVTVSA
VL: DIQMTQSPASLSASVGETVTFTCRASEMIYSYLAWYQQKQGKSPQLLVHDAKTLAEGVPSRFSGGGSGTQFSLKINTLQPEDFGTYYCQAHYGNPPTFGGGTKLEIKR
notes: also called anti-CD4 Fab
B1: binds [1]; binds [2].
